Measurements from publication PMC5892457, “Characterisation of novel biomass degradation enzymes from the genome of Cellulomonas fimi” (Enzyme and Microbial Technology, 2018).

Tests used:
Assay in all cases: purified protein
Format in all cases: biochemical, Cellulomonas fimi
purified protein [1] = substrate: O=[N+]([O-])c1ccccc1O[C@@H]1OC[C@@H](O)[C@H](O)[C@H]1O; settings: pH 6.0, 45 °C, partially purified enzyme, points at 20 mM and above excluded (substrate precipitation)
purified protein [2] = substrate: O=[N+]([O-])c1ccc(O[C@@H]2O[C@@H](CO)[C@H](O)[C@H]2O)cc1; settings: pH 6.5, 45 °C, partially purified enzyme
purified protein [3] = substrate: O=[N+]([O-])c1ccccc1O[C@@H]1O[C@H](CO)[C@@H](O[C@@H]2O[C@H](CO)[C@@H](O)[C@H](O)[C@H]2O)[C@H](O)[C@H]1O; settings: pH 6.0, 60 °C, partially purified enzyme, printed value differs between text and Table 3

B1: BxyF (Cellulomonas fimi ATCC 484) (protein)
chain: MTRRLVPELEVRRHLVEDYADFTQIPEAVVARWKAPFGPPEDWDLTVVDHTVPGPHGPVPVRVYTPVGTPPDGGRACLVWMHGGAFSWGDLDMAEAHEVARGVAGRADVVVVSVDYRLCPVMPELGGTVGDRVDERGEPVRFPVPQDDCAAVLDAVRADPARFGVDAARVAIGGASAGAFLAAAVTLRAVEDGRAPWQTLLVYPMLHPRVPALGTELAEAVEAAPRALQLPAWMVEATNRTVLGREPEPSDDEAFPGLAARLEGFPPTYVENGELDAFRASGERFSTRLRAAGVDVVEVTRSGVPHGHLDWVGFGPARDTLDALAQRLRAPSAADRQALDELRVDGAPASDAPLHHVWNRCVGAGRANEALRADWQAHLREAVDVLGVRSVRFHGLFHDDMFVYRSTYGGGFAPPEVLPEPLITFSYVDMVFDALLDAGARPFVELGFMPRELATQTETLFWWKAHCSPPTDMAEWVRLVSETVRHWIERYGLDEVRQWRFEVWNEPNLVPHFWTGTRTEYFALYEATARALKAIDLQLRVGGPSTSVFVPDARYAGETYDHAAEFATGRAPDPDALDWQPVWVRELVDYCAERDLPLDFLSTHLYPTDYAADGTGSGVTAIHRHVDATEQDLRLLQELIAASPYPDAELHITEWSSSPSSRDRTHDTLFAATYITRAFLKGAALADSISYWTFTDIFEEGGAGLGPFHGGFGFVNEQGIHKPTFHAVAMLNRLGDRVVHQDEHGIITRSSGDGHVSAVFLNYPAEMGTRGVEQHDTYAAARAYREIGTARRVRRTVAGLEPGTVFQVEVLDWEHGNAAEAWHQMGEPLNLTRAQTTELKTVADDLRRWTITVPDSGVLEIDLDLPAWAVASVAPVTPTPSPTTNDAPSPTSSRQG
notes: full ORF as BioBrick, E. coli JM109, untagged; partially purified (DEAE-Sepharose, phenyl-agarose)
Purified protein [1]
  Km: 1.7 mM

B2: AfsB (Cellulomonas fimi ATCC 484) (protein)
chain: MFPVRLTLDPAFRVGPVRRRTFGSFVEHLGRCVYTGIHDPGHPTADADGFRKDVLELTRELGVSTVRYPGGNFVSGYRWEDGVGPVEQRPTRLDLAWHSLEPNTVGVDEFMRWAALAEVEPMMAVNLGTRGVQEALDLLDYCNGTAPTYWADQRRANGATDPYAIKMWCLGNEMDGPWQIGSKTAHEYGRLAAETGRAMKMVDPTLELVACGSSGVVMPTFGEWERIVLSEAYEQVDYVSAHAYYWEEDGDLGSFLASATDMDHFVESVTATADAVRAHKKVSKRIHISFDEWNVWYQKRAESRPPTGDDWPVAPVLLEDRYNVADAVVVGNLLISLLRHTDRVHAASLAQLVNVIAPIMTEPGGRSWKQTIFHPFAQASRYAAGDVLQVAIDAPTYETARYGDAALVDAVATRDPETGATTLFAVNRSLTEPALLEVDTRALPGLRVLDASTLSNPDHTWAATADDDTSVAPRANTTAEIRDGRLTVQVPPVSWNVVRLGA
notes: as for B1
Purified protein [2]
  Km: 6.8 mM

B3: XynF (Cellulomonas fimi ATCC 484) (protein)
chain: AGSTLQAAAAESGRYFGTAIAASRLSDGTYTGIANREFNMITAENEMKMDATEPNRGQFSYSNGDRIVNWARQNGKQVRGHALAWHSQQPGWMQNLSGTDLRNAMLNHVTQVATYYRGKIYAWDVVNEAYADGSSGARRDSNLQRTGNDWIEAAFRAARAADPNAKLCYNDYNTDNWSHAKTQGVYNMVKDFKARGVPIDCVGFQAHFNSGNPVPSNYHTTLQNFADLGVDVQITELDIEGSGSSQAQQYQGVVQACLAVSRCTGITVWGVRDTDSWRASGTPLLFDGSGNKKAAYTSVLNALNAGGTTTPTPNPTNPTPTPTPTNPGGGSPSCTATYSEGQKWGDRFNGTVTIRATTNISSWQSTVTVRSPQKIIATWNGSPTWDSSGNVMTMRPSGSGALAAGQSTSFGFTVQHNGNWTWPSVTCAAS
notes: ORF with TAT signal peptide and CBMII as BioBrick, E. coli JM109, untagged; partially purified (DEAE-, CM-Sepharose)
Purified protein [3]
  Km: 58 mM
